This note sets out measurements from article PMC11384727.

The target in this experiment is PKM2 (pcDNA3.1(+)-PKM2, transfected) (human) (UniProt P14618). Description: cross-linking.

Sequence of PKM2 (pcDNA3.1(+)-PKM2, transfected), P14618 1-531 (enzyme; other documents disagree on this pair) (P14618 whole entry): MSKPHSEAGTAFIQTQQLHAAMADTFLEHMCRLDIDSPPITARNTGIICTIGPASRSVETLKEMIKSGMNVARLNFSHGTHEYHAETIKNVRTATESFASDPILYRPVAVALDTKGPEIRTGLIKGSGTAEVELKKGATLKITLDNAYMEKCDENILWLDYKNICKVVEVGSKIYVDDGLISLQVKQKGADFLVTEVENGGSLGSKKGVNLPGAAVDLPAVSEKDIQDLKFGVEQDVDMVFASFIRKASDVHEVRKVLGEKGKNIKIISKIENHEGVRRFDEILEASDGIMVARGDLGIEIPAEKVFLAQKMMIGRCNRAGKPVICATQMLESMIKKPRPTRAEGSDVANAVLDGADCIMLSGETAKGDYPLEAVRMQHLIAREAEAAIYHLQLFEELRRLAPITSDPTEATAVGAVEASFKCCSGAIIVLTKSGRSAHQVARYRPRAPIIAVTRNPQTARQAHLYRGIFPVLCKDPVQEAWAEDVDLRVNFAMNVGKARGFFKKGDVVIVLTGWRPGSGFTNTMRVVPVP

Usually stoichiometry N stands for a count of units in the complex or per binding partner. “PKM2 (pcDNA3.1(+)-PKM2, transfected), P14618 1-531 (enzyme; other documents disagree on this pair)” yielded a stoichiometry N of 2.
